Test results: US20200317768A1 (published 2020)
Where a chain is given by its changes, count along the chain named.

T1: cynomolgus monkey FcγRIIa3 extracellular domain with C-terminal His-tag (cynomolgus monkey)
T1 construct: Expressed in FreeStyle 293 cells and purified; also called cyno FcγRIIa3; cynoFcgRIIa3; not shown: C-terminal His-tag
T1 chain: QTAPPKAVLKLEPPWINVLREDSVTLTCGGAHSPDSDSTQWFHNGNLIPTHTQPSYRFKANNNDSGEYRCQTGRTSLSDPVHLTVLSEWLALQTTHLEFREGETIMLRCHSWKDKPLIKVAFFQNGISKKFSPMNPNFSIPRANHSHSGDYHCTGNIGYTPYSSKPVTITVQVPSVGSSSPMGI

T2: human FcγRIIaH extracellular domain with C-terminal His-tag (human, UniProt P12318 34-217)
T2 construct: Expressed in FreeStyle 293 cells and purified; also called human FcγRIIa (type H); FcgRIIaH; not shown: C-terminal His-tag
T2 sequence: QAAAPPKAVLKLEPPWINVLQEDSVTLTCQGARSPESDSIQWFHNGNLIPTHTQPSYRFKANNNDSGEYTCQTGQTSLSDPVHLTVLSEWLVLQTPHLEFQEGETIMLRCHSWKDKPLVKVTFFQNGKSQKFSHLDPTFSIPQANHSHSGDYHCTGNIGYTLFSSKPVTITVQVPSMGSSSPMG

T3: cynomolgus monkey FcγRIIb extracellular domain with C-terminal His-tag (cynomolgus monkey)
T3 construct: Expressed in FreeStyle 293 cells and purified; also called cyno FcγRIIb; cynoFcγRIIb; not shown: C-terminal His-tag
T3 chain: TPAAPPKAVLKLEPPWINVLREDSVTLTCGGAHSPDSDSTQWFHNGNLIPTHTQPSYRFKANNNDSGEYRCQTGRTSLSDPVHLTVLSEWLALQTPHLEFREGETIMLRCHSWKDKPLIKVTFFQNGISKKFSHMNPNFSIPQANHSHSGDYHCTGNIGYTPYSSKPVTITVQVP

T4: cynomolgus monkey FcγRIIa1 extracellular domain with C-terminal His-tag (cynomolgus monkey)
T4 construct: Expressed in FreeStyle 293 cells and purified; also called cyno FcγRIIa1; cynoFcgRIIa1; not shown: C-terminal His-tag
T4 chain: T1 chain with T95P, A121T, S128A, P133H, N135D

T5: cynomolgus monkey FcγRIIa2 extracellular domain with C-terminal His-tag (cynomolgus monkey)
T5 construct: Expressed in FreeStyle 293 cells and purified; also called cyno FcγRIIa2; cynoFcgRIIa2; not shown: C-terminal His-tag
T5 chain: T1 chain with I127K, K130N, P133H, R142Q

T6: cynomolgus monkey FcγRIIIaS extracellular domain with C-terminal His-tag (cynomolgus monkey, UniProt Q8SPW2 21-206 at identity 1.00))
T6 construct: Expressed in FreeStyle 293 cells and purified; also called cyno FcγRIIIaS; cynoFcγRIIIaS; not shown: C-terminal His-tag
T6 chain: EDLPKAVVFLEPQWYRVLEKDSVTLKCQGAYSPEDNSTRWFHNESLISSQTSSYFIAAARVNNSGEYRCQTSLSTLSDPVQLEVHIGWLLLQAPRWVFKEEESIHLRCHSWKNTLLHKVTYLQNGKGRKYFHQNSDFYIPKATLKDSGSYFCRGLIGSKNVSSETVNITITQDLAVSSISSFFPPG

T7: human FcγRIIb extracellular domain with C-terminal His-tag (human, UniProt P31994 43-217)
T7 construct: Expressed in FreeStyle 293 cells and purified; also called humanFcgRIIb; not shown: C-terminal His-tag
T7 sequence: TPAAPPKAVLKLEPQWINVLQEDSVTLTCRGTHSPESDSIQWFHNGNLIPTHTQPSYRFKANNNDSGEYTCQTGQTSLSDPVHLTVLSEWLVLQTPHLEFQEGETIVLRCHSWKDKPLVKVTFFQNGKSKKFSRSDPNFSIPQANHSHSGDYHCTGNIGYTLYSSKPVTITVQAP

B1: M103205H795-MY180 / M103202L889-SK1 (antibody, human IgG1, kappa)
heavy: QVTLKESGPVLVKPTETLTLTCTVSGIDLSHDDISWVRQAPGKGLEWVGIISYAGSTYYASWAKGRLTISKDTSKNQVVLTMTNMDPVDTATYYCARGVPAYSHGGDLWGQGTLVTVSSASTKGPSVFPLAPSSKSTSGGTAALGCLVKDYFPEPVTVSWNSGALTSGVHTFPAVLQSSGLYSLSSVVTVPSSSLGTQTYICNVNHKPSNTKVDKKVEPKSCDKTHTCPPCPAPELLNGPSVFLFPPKPKDTLMISRTPEVTCVVVDVSEEDPEVKFNWYVDGVEVHNAKTKPREEQYNSTYRVVSVLTVLHQDWLNGKEYKCKVSNKALPAPIEKTISKAKGQPREPQVYTLPPSREEMTKNQVSLTCLVKGFYPSDIAVEWESNGQPENNYKTTPSVLDSDGSFFLYSKLTVDKSRWQQGNVFSCSVMHEALHNHYTQKSLSLSP
light: DIVMTQSPATLSLSPGERATLSCTSSQSVYHANWLSWFQQKPGQPPKLLIYWASTLAYGVPSRFSGSGSGTDFTLTISSLQPEDAATYYCAGGYGGGRYAFGQGTKVEIKRTVAAPSVFIFPPSDEQLKSGTASVVCLLNNFYPREAKVQWKVDNALQSGNSQESVTEQDSKDSTYSLSSTLTLSKADYEKHKVYACEVTHQGLSSPVTKSFNRGEC
notes: Position 396 variant derived from MY052, expressed with M103202L889-SK1 as light chain
B2: M103205H795-MY181 / M103202L889-SK1 (antibody, human IgG1, kappa)
heavy: B1 heavy with S398T
light: B1 light
notes: as for B1
B3: M103205H795-MY182 / M103202L889-SK1 (antibody, human IgG1, kappa)
heavy: B1 heavy with S398V
light: B1 light
notes: as for B1
B4: M103205H795-MY183 / M103202L889-SK1 (antibody, human IgG1, kappa)
heavy: B1 heavy with S398W
light: B1 light
notes: as for B1
B5: M103205H795-MY184 / M103202L889-SK1 (antibody, human IgG1, kappa)
heavy: B1 heavy with S398Y
light: B1 light
notes: as for B1

Legend:
[1] = target: T1, cynomolgus monkey FcγRIIa3 …; test: SPR (Biacore); KD of SG1 divided by KD of the variant for this FcgR;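 further: relative to parent M103205H795-SG1 carrying the SG1 human heavy chain constant region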
[2] = target: T2, human FcγRIIaH extracellular domain …; test: SPR (Biacore), antibody captured on chip, FcgR extracellular domain as analyte, 25 C
[3] = target: T8, human FcγRIIIaV extracellular domain with C-terminal His-tag (human, UniProt P08637 17-208); test: as above
T8 construct: Expressed in FreeStyle 293 cells and purified; also called FcgRIIIaV; not shown: C-terminal His-tag

[4] = target: T3, cynomolgus monkey FcγRIIb extracellular …; test: as above
[5] = target: T4, cynomolgus monkey FcγRIIa1 …; test: as above
[6] = target: T5, cynomolgus monkey FcγRIIa2 …; test: as above
[7] = target: T1, cynomolgus monkey FcγRIIa3 …; test: as above
[8] = target: T6, cynomolgus monkey FcγRIIIaS …; test: as above
[9] = target: T7, human FcγRIIb extracellular domain with …; test: as above

T8 sequence (P08637 17-208 F176V): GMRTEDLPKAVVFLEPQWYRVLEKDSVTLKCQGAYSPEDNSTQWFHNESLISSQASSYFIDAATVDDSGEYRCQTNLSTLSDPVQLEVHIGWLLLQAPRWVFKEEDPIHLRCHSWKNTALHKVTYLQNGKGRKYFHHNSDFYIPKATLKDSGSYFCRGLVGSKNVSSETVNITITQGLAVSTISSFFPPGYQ

Row | Binder | KD fold (SG1 = 1) [1] [fold] | Kd [2] [nM] | Kd [3] [nM] | Kd [4] [nM] | Kd [5] [nM] | Kd [6] [nM] | Kd [7] [nM] | Kd [8] [nM] | Kd [9] [nM]
1 | B1 | 1.4 | 1700 | 5900 | 1300 | 2600 | 2700 | 12000 | 3100 | 19000
2 | B2 | 1.8 | 1300 | 7300 | 1000 | 2300 | 2300 | 9200 | 4100 | 14000
3 | B3 | 2.2 | 1300 | 7000 | 960 | 2100 | 2200 | 7800 | 3500 | 1200
4 | B4 | 2 | 1200 | 7200 | 970 | 2100 | 2000 | 8400 | 3500 | 1100
5 | B5 | 2 | 1100 | 6800 | 980 | 1900 | 2000 | 8400 | 3300 | 1100
